Laboratory results taken from patent publication US20050065081A1, “Tyrosine kinase inhibitors” (priority 2002, published 2005).

B1: Abl P82-K531: mutant lacking the last exon region and the N-terminal amino acids preceding the SH3 domain (protein, UniProt P00519 82-531, looked up, fragment)
chain: ITKGEKLRVLGYNHNGEWCEAQTKNGQGWVPSNYITPVNSLEKHSWYHGPVSRNAAEYLLSSGINGSFLVRESESSPGQRSISLRYEGRVYHYRINTASDGKLYVSSESRFNTLAELVHHHSTVADGLITTLHYPAPKRNKPTVYGVSPNYDKWEMERTDITMKHKLGGGQYGEVYEGVWKKYSLTVAVKTLKEDTMEVEEFLKEAAVMKEIKHPNLVQLLGVCTREPPFYIITEFMTYGNLLDYLRECNRQEVNAVVLLYMATQISSAMEYLEKKNFIHRDLAARNCLVGENHLVKVADFGLSRLMTGDTYTAHAGAKFPIKWTAPESLAYNKFSIKSDVWAFGVLLWEIATYGMSPYPGIDLSQVYELLEKDYRMERPEGCPEKVYELMRACWQWNPSDRPSFAEIHQAFETMFQESSISDEVEKELGKQGVRGAVSTLLQAPELPTK
modifications: isoform 1B
notes: mutant lacking the last exon region and the N-terminal amino acids preceding the SH3 domain

System: GST-Jun
Assay: Abl in vitro kinase assay of immunoprecipitated Abl proteins, GST-Jun as substrate
Type: biochemical
Conditions: expressed in HEK293 cells, relative to Abl M1-K531
Description: C. Abl protein was immunoprecipitated from total cell extract using anti-Abl antibodies, blotted to nitrocellulose and probed with anti-Abl and anti-phosphotyrosine antibodies (left panels). Abl immunoprecipitates were assayed for catalytic activity by in vitro kinase assay using GST-Jun as substrate.
The catalytic activity of purified Abl protein bound to protein G-Sepharose beads was determined as follows. Beads were washed three times with IP buffer, two times with IP buffer without NaCl and two times with kinase assay buffer (20 mM Tris-HCl pH 7.5, 10 mM MgCl2, 1 mM DTT). Twenty μl linase assay mix (1 μg GST-Crk121-226 (Dorey et al., 1999), 0.5 μl [γ-^32P]-ATP (Amersham), 0.1 mM ATP in kinase assay buffer) was added and the mixture was incubated at room temperature for 10 and 20 minutes. The kinase reaction was stopped by adding SDS-sample buffer and analyzed by SDS-PAGE. Quantification of the reaction was done by cutting the desired bands from gel followed by liquid scintillation counting and/or phosphoimager analysis. For the in vitro inhibition of Abl, GST or GST 1b+2 protein were bacterially expressed, purified and dialysed against kinase assay buffer. Equal quantities of purified proteins were added directly to the kinase assay mixture, samples were incubated for 2 hours at 4° C. and then assayed as above.

| Molecule | Catalytic activity and tyrosine phosphorylation (in words) |
| --- | --- |
| Abl M1-K531: deletion mutant lacking the last exon region of c-Abl | did not lead to activation |
| B1 | highly active in vitro |
